Read-outs that look alike come from different tables or passages of the source.
Columns and labels:
[1] = target: membrane-bound single-chain I-A^d-OVA (SCT1 construct) on transfected NSO cells (mouse (I-A^d); chicken (OVA peptide)); assay: flow cytometry, FITC-conjugated 10-3.6 isotype control 1:100 on T2 (SCT1-transfectant)
[2] = target: membrane-bound single-chain I-A^d-OVA (SCT1 construct) on transfected NSO cells (mouse (I-A^d); chicken (OVA peptide)); assay: flow cytometry, FITC-conjugated 10-3.6 isotype control 1:100 on T12 (SCT1-transfectant)
[3] = target: I-A^d on NSO parental cells (untransfected negative control, H-2^d background) (mouse) (UniProt P04228); assay: flow cytometry, FITC-conjugated 10-3.6 isotype control 1:100 on NSO (parental) cells
[4] = target: membrane-bound single-chain I-A^d-OVA (SCT1 construct) on transfected NSO cells (mouse (I-A^d); chicken (OVA peptide)); assay: flow cytometry, FITC-conjugated 10-3.6 isotype control 1:100 on T6 (SCT1-transfectant)
[5] = target: membrane-bound single-chain I-A^d-OVA (SCT1 construct) on transfected NSO cells (mouse (I-A^d); chicken (OVA peptide)); assay: flow cytometry, FITC-conjugated AMS 32.1 1:100 on T6 (SCT1-transfectant)
[6] = target: membrane-bound single-chain I-A^d-OVA (SCT1 construct) on transfected NSO cells (mouse (I-A^d); chicken (OVA peptide)); assay: flow cytometry, FITC-conjugated AMS 32.1 1:100 on T12 (SCT1-transfectant)
[7] = target: membrane-bound single-chain I-A^d-OVA (SCT1 construct) on transfected NSO cells (mouse (I-A^d); chicken (OVA peptide)); assay: flow cytometry, FITC-conjugated AMS 32.1 1:100 on T2 (SCT1-transfectant)
[8] = target: I-A^d on NSO parental cells (untransfected negative control, H-2^d background) (mouse) (UniProt P04228); assay: flow cytometry, FITC-conjugated AMS 32.1 1:100 on NSO (parental) cells
[9] = target: soluble single-chain I-A^d-OVA from insect cells (SSC1 gene in pMBSC1.2, SF9 cells) (mouse (I-A^d); chicken (OVA peptide)); assay: sandwich ELISA, M5/114 capture and biotinylated AMS-32.1 detection; cotransfection mix supernatant, diluted 1:8
[10] = target: soluble single-chain I-A^d-OVA from insect cells (SSC1 gene in pMBSC1.2, SF9 cells) (mouse (I-A^d); chicken (OVA peptide)); assay: sandwich ELISA, M5/114 capture and biotinylated AMS-32.1 detection; cotransfection mix supernatant, diluted 1:2
[11] = target: soluble single-chain I-A^d-OVA from insect cells (SSC1 gene in pMBSC1.2, SF9 cells) (mouse (I-A^d); chicken (OVA peptide)); assay: sandwich ELISA, M5/114 capture and biotinylated AMS-32.1 detection; cotransfection mix supernatant, undiluted
[12] = target: soluble single-chain I-A^d-OVA with EE antibody tag (SCE1 construct) secreted by transfected NSO cells (mouse (I-A^d); chicken (OVA peptide)); assay: sandwich ELISA of Example 18, M5/114 capture and biotinylated AMS-32.1 detection; undiluted culture supernatant of E11 (SCE1 transfectant)
[13] = target: soluble single-chain I-A^d-OVA from insect cells (SSC1 gene in pMBSC1.2, SF9 cells) (mouse (I-A^d); chicken (OVA peptide)); assay: sandwich ELISA, M5/114 capture and biotinylated AMS-32.1 detection; supernatant of virus clone C6
[14] = target: soluble single-chain I-A^d-OVA with EE antibody tag (SCE1 construct) secreted by transfected NSO cells (mouse (I-A^d); chicken (OVA peptide)); assay: sandwich ELISA of Example 18, M5/114 capture and biotinylated AMS-32.1 detection; undiluted culture supernatant of E10 (SCE1 transfectant)
[15] = target: soluble single-chain I-A^d-OVA from insect cells (SSC1 gene in pMBSC1.2, SF9 cells) (mouse (I-A^d); chicken (OVA peptide)); assay: sandwich ELISA, M5/114 capture and biotinylated AMS-32.1 detection; cotransfection mix supernatant, diluted 1:4
[16] = target: Neuron Specific Enolase (NSE), supernatant of SF9 cells infected with recombinant Baculovirus; assay: sandwich ELISA, M5/114 capture and biotinylated AMS-32.1 detection; supernatant of SF9 cells infected with NSE Baculovirus (negative control)
[17] = target: soluble single-chain I-A^d-OVA from insect cells (SSC1 gene in pMBSC1.2, SF9 cells) (mouse (I-A^d); chicken (OVA peptide)); assay: sandwich ELISA of Example 18, M5/114 capture and biotinylated AMS-32.1 detection; sc I-A^d-OVA from insect cell culture (positive control)
[18] = target: soluble single-chain I-A^d-OVA from insect cells (SSC1 gene in pMBSC1.2, SF9 cells) (mouse (I-A^d); chicken (OVA peptide)); assay: sandwich ELISA, M5/114 capture and biotinylated AMS-32.1 detection; supernatant of virus clone F8
[19] = target: T cell receptor of the murine T cell hybridoma DO11.10 (I-A^d restricted, OVA peptide 323-339 specific) (mouse); assay: cell-based or functional assay
[20] = target: T cell receptor of the murine T cell hybridoma DO11.10 (I-A^d restricted, OVA peptide 323-339 specific) (mouse); assay: cell-based or functional assay; remark: listed apart in the source

## isotype matched FITC-conjugated anti-I-A^k antibody, 10-3.6 (PharMingen)
[1]
  Mean Fluorescence: 22
[2]
  Mean Fluorescence: 45.9
[3]
  Mean Fluorescence: 32.1
[4]
  Mean Fluorescence: 45.1

## AMS-32.1 anti-IA^d (Pharmingen) (antibody)
[5]
  Mean Fluorescence: 418
[6]
  Mean Fluorescence: 911
[7]
  Mean Fluorescence: 613
[8]
  Mean Fluorescence: 280

## M5/114 (ATCC TIB 120) anti-IA^d (antibody)
[9]
  Absorbance (405 nm): 0.165 absorbance
[10]
  Absorbance (405 nm): 0.524 absorbance
[11]
  Absorbance (405 nm): 0.857 absorbance
[12]
  Absorbance (405 nm): 0.96 absorbance
[13]
  Absorbance (405 nm): 1.56 absorbance
[14]
  Absorbance (405 nm): 0.781 absorbance
[15]
  Absorbance (405 nm): 0.305 absorbance
[16]
  Absorbance (405 nm): 0.098 absorbance
[17]
  Absorbance (405 nm): 2.44 absorbance
[18]
  Absorbance (405 nm): 1.45 absorbance

B1: membrane-bound single-chain I-A^d-OVA (SCT1 construct) on transfected NSO cells (peptide-MHC)
chain: TMALQIPSLLLSAAVVVLMVLSSPRTLSISQAVHAAHAEINEAGRASGGGGSGGGGNSERHFVVQFKGECYYTNGTQRIRLVTRYIYNREEYVRYDSDVGEYRAVTELGRPDAEYWNSQPEILERTRAEVDTACRHNYEGPETSTSLRRLEQPNVAISLSRTEALNHHNTLVCSVTDFYPAKIKVRWFRNGQEETVGVSSTQLIRNGDWTFQVLVMLEMTPHQGEVYTCHVEHPSLKSPITVEWTSGGGGSGGGGSGGGGSGGGGSSSEDDIEADHVGFYGTTVYQSPGDIGQYTHEFDGDELFYVDLDKKKTVWRLPEFGQLILFEPQGGLQNIAAEKHNLGILTKRSNFTPATNEAPQATVFPKSPVLLGQPNTLICFVDNIFPPVINITWLRNSKSVTDGVYETSFLVNRDHSFHKLSYLTFIPSDDDIYDCKVEHWGLEEPVLKHWEPEIPAPMSELTETVVCALGLSVGLVGIVVGTIFIIQGLRSGGTSRHPGPL
[19]
  IL-2 ELISA result (Absorbance), DO11.10 with T2 (SCT1 transfectant) as antigen presenting cell: 0.758 Absorbance
  IL-2 ELISA result (Absorbance), DO11.10 with T6 (SCT1 transfectant) as antigen presenting cell: 0.307 Absorbance
[20]
  IL-2 ELISA result (Absorbance), DO11.10 with T12 (SCT1 transfectant) as antigen presenting cell: 1.03 Absorbance

B2: soluble single-chain I-A^d-OVA from insect cells (SSC1 gene in pMBSC1.2, SF9 cells) (peptide-MHC)
chain: TMALQIPSLLLSAAVVVLMVLSSPRTLSISQAVHAAHAEINEAGRASGGGGSGGGGNSERHFVVQFKGECYYTNGTQRIRLVTRYIYNREEYVRYDSDVGEYRAVTELGRPDAEYWNSQPEILERTRAEVDTACRHNYEGPETSTSLRRLEQPNVAISLSRTEALNHHNTLVCSVTDFYPAKIKVRWFRNGQEETVGVSSTQLIRNGDWTFQVLVMLEMTPHQGEVYTCHVEHPSLKSPITVEWTSGGGGSGGGGSGGGGSGGGGSSSEDDIEADHVGFYGTTVYQSPGDIGQYTHEFDGDELFYVDLDKKKTVWRLPEFGQLILFEPQGGLQNIAAEKHNLGILTKRSNFTPATNEAPQATVFPKSPVLLGQPNTLICFVDNIFPPVINITWLRNSKSVTDGVYETSFLVNRDHSFHKLSYLTFIPSDDDIYDCKVEHWGLEEPVLKHWSRASHHHHHH
[19]
  IL-2 concentration in DO11 super, 39 ng/well immobilized scIA^d-OVA (extended dilution): 0 U/ml
  IL-2 concentration in DO11 super, 78 ng/well immobilized sc IA^d-OVA: 45 U/ml
  IL-2 concentration in DO11 super, 78 ng/well immobilized scIA^d-OVA (extended dilution): 17 U/ml
  IL-2 concentration in DO11 super, 156 ng/well immobilized sc IA^d-OVA: 100 U/ml
  IL-2 concentration in DO11 super, 156 ng/well immobilized scIA^d-OVA (extended dilution): 24 U/ml
  IL-2 concentration in DO11 super, 312 ng/well immobilized sc IA^d-OVA: 109 U/ml
  IL-2 concentration in DO11 super, 312 ng/well immobilized scIA^d-OVA (extended dilution): 35 U/ml
  IL-2 concentration in DO11 super, 625 ng/well immobilized sc IA^d-OVA: 116 U/ml
  IL-2 concentration in DO11 super, 625 ng/well immobilized scIA^d-OVA (extended dilution): 38 U/ml
  IL-2 concentration in DO11 super, 1250 ng/well immobilized sc IA^d-OVA: 126 U/ml
  IL-2 concentration in DO11 super, 2500 ng/well immobilized sc IA^d-OVA: 143 U/ml
  IL-4 concentration in DO11 super, 78 ng/well immobilized sc IA^d-OVA: 7 U/ml
  IL-4 concentration in DO11 super, 156 ng/well immobilized sc IA^d-OVA: 10 U/ml
  IL-4 concentration in DO11 super, 312 ng/well immobilized sc IA^d-OVA: 16 U/ml
  IL-4 concentration in DO11 super, 625 ng/well immobilized sc IA^d-OVA: 15 U/ml
  IL-4 concentration in DO11 super, 1250 ng/well immobilized sc IA^d-OVA: 20 U/ml
  IL-4 concentration in DO11 super, 2500 ng/well immobilized sc IA^d-OVA: 23 U/ml
  IL-r [IL-4] concentration in DO11 super, 39 ng/well immobilized scIA^d-OVA (extended dilution): 0 U/ml
  IL-r [IL-4] concentration in DO11 super, 78 ng/well immobilized scIA^d-OVA (extended dilution): 0.8 U/ml
  IL-r [IL-4] concentration in DO11 super, 156 ng/well immobilized scIA^d-OVA (extended dilution): 0.9 U/ml
  IL-r [IL-4] concentration in DO11 super, 312 ng/well immobilized scIA^d-OVA (extended dilution): 1.5 U/ml
  IL-r [IL-4] concentration in DO11 super, 625 ng/well immobilized scIA^d-OVA (extended dilution): 2 U/ml

B3: I-A^d on NSO parental cells (untransfected negative control, H-2^d background) (protein, mouse)
MHC II alpha: EDDIEADHVGFYGTTVYQSPGDIGQYTHEFDGDELFYVDLDKKKTVWRLPEFGQLILFEPQGGLQNIAAEKHNLGILTKRSNFTPATNEAPQATVFPKSPVLLGQPNTLICFVDNIFPPVINITWLRNSKSVTDGVYETSFLVNRDHSFHKLSYLTFIPSDDDIYDCKVEHWGLEEPVLKHWEPEIPAPMSELTETVVCALGLSVGLVGIVVGTIFIIQGLRSGGTSRHPGPL
MHC II beta: GNSERHFVVQFKGECYYTNGTQRIRLVTRYIYNREEYVRYDSDVGEYRAVTELGRPDAEYWNSQPEILERTRAEVDTACRHNYEGPETSTSLRRLEQPNVAISLSRTEALNHHNTLVCSVTDFYPAKIKVRWFRNGQEETVGVSSTQLIRNGDWTFQVLVMLEMTPHQGEVYTCHVEHPSLKSPITVEWRAQSESARSKMLSGIGGCVLGVIFLGLGLFIRHRSQKGPRGPPPAGLLQ
[19]
  IL-2 ELISA result (Absorbance), DO11.10 with NSO (parental cell line) as antigen presenting cell: 0.047 Absorbance
[20]
  IL-2 ELISA result (Absorbance), DO11.10 with NSO (parental cell line) as antigen presenting cell: 0.078 Absorbance

B4: I-A^d on A20 cells with added OVA 323-339 peptide (peptide-MHC, mouse)
MHC II alpha: B3 MHC II alpha
MHC II beta: B3 MHC II beta
peptide: SISQAVHAAHAEINEAGR
[19]
  IL-2 ELISA result (Absorbance), DO11.10 with A20 + OVA 323-339 peptide (positive control): 1.33 Absorbance
[20]
  IL-2 ELISA result (Absorbance), DO11.10 with A20 + OVA 323-339 peptide (positive control): 1.45 Absorbance
